Source: article doi:10.1101/806364

Key:
Assay in all cases: selective 80S ribosome footprinting
[1] = target: eIF4G1 (human (endogenous in HeLa)) (UniProt Q04637)
[2] = target: eIF4E (human (endogenous in HeLa)) (UniProt P06730)
[3] = target: eIF3B (human (endogenous in HeLa)) (UniProt P55884)
Chain of UniProt P55884 (P55884 whole entry): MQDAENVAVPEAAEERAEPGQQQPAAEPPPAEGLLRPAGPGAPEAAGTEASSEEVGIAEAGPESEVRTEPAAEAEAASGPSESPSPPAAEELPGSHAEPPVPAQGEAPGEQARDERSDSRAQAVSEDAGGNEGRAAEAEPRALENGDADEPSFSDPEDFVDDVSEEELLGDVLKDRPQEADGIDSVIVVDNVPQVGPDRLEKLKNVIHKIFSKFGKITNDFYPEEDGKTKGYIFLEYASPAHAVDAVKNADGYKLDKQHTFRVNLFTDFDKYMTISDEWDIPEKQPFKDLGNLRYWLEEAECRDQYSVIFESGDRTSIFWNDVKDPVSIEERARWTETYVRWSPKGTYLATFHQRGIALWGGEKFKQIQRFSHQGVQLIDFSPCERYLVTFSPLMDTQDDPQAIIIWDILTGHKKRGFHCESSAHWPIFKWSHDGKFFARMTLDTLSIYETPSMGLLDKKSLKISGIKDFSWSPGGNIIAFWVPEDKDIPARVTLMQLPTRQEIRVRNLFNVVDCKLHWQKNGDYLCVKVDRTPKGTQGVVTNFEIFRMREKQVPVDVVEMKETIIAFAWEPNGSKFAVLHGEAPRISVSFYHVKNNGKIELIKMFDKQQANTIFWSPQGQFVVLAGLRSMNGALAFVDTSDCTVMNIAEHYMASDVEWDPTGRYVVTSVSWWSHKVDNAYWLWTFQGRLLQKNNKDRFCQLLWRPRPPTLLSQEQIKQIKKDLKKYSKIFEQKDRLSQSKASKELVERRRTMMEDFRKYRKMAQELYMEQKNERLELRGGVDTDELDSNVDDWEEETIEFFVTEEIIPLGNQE

Chain of UniProt P06730 (P06730 whole entry): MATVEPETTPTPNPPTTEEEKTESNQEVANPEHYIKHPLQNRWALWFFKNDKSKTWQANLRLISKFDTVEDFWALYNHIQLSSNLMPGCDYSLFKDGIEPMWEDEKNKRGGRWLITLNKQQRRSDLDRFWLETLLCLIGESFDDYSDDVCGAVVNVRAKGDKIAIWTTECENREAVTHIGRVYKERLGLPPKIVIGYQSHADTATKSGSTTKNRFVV
Chain of UniProt Q04637 (Q04637 whole entry): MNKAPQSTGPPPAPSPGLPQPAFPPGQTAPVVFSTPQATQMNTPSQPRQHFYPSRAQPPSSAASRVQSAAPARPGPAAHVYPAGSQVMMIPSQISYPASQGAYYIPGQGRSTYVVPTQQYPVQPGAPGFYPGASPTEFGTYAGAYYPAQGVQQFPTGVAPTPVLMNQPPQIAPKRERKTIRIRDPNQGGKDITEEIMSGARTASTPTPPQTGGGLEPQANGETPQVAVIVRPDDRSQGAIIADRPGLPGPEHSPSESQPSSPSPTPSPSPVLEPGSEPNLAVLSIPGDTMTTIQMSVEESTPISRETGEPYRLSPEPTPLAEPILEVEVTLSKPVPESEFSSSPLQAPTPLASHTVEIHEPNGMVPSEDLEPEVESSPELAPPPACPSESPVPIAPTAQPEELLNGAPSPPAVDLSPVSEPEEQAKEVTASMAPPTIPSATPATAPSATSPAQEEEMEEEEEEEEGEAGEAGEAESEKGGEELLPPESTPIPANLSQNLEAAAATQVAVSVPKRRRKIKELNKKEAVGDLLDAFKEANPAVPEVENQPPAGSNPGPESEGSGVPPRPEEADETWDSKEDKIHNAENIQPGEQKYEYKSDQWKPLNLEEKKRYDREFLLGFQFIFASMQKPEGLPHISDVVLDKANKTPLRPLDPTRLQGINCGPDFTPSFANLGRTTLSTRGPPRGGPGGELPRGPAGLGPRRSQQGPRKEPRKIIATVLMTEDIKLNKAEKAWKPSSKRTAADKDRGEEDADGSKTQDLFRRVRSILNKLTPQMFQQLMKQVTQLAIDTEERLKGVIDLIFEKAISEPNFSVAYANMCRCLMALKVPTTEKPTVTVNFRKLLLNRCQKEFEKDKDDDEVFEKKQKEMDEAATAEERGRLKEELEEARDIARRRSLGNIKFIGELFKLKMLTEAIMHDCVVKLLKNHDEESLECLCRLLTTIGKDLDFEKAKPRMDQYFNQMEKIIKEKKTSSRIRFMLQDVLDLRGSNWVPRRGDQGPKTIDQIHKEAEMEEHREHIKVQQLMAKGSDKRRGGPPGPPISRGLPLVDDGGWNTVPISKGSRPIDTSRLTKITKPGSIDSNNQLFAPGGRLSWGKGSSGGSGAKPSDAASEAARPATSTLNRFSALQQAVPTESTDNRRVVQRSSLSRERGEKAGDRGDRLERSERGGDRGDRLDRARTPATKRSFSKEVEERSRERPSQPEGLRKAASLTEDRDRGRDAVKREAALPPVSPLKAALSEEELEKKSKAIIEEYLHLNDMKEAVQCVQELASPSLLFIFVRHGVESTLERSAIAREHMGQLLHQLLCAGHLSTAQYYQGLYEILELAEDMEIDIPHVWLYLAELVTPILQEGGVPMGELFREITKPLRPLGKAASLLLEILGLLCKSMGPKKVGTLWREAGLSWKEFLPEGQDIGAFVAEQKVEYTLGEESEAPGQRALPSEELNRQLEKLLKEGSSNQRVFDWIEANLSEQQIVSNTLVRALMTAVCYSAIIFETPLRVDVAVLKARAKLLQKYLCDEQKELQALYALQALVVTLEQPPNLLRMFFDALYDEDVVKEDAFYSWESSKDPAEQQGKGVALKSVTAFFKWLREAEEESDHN

decay half-length of the factor on elongating 80S ribosomes [1]: 36 nucleotides | decay half-length of the factor on elongating 80S ribosomes [2]: 36 nucleotides | decay half-length of the factor on elongating 80S ribosomes [3]: 36 nucleotides
Substance: 80S ribosome (complex)
